Assay: soluble on expression in E. coli; label from the status in PepcDB or PDB records

| Sequence | soluble on expression in E. coli |
| --- | --- |
| MEERILDRLAALDPDLMAYIRDFAYDTVYERPGLDLKTKELLASVLLVSLGSPDELKTHLRGALRAGATEQEVREALLLCVPYLGFPRTVAAFSQLQS | soluble |
| MGSDKIHHHHHHMKGKYRVGLISFSDGREYVHRELEGIVKKFEDEIAKTLEETGEVEVIRAKEIVWKPSIAKREARRLAEEGAEVTIFNYAVWAFPHFTVLASKFAPGPFLLFSNINPQYPGMVAMLSAAGALEQDGTKHYRMWGNIKDEKVLRKVMAFIRAGSTYKKLRGQRYGVFGGRSMGMYTAVPNVDLWNKIFGVDVEHIDQFEIVRRSQLIPDERARKGRLWIEEKAKAVHYDGKYLTPEKLELQIKSYHAVREIVEEMELDFVGIKGQLELTEHFVTMDVTETFLNDPYDWEGEHEPIVCATEADSDGALTMQIFKLIAKTPVLFADVRHYVEEYDVLDLCNSGNHATYFAARSFDPDENMKKVEFYPQTFYFPAGGAAVKHIAAPGKVTLGRLTREDGRYRFTVVPGEFVDFGEEKNYEIADSIQNNWPHAFLKMETPIDEFLAKYSSNHIHGVYGDYVEEIKTFCEIASIDFVLMK | not soluble |
| GPGSMDVSKRPREELHKEQCLSFVKKLWAADTLAMFHYPVSATEVPGYYDVVETPMDLSTIRKNIEQGTYRTDAEVENDVVLMLSNALDFNEKGSQWHDLAKQFKKQYLTLARESGLSFDADQAFIPTKKVRDDESTLRKAEKKGEEKLEDVLQAMEKDKEIPLEQLRAMYARRTTRGKADQQSSDFSSGRGNDDSDEVVSSDEEDTSDSGSGSYDTEEDEDSLDSESASKDDDDDK | soluble |
| MDAVVATQTPAEVFDVVVVGGGPAGATAATDLARAGRRVALLDPEGRPKPCGGAIPPRLMSEFAIPDDLPCAQVSGARALAPSGRVVDMPITGAVVSMVDRAVFDPWLRARAHQAGACRLHGRFEGFDRQEDGALVVLWRPEGAAVANRIVARYVVGADGARSKVAALAVAGAAPPCVAAYHEIIRAPAAPAASAPTPATAAGPAYDPARCDVIYRGDISPDFYGWIFPHGETLSIGSGTAVKGFSLREAVALLRREAGLDGLEVVRREGAPIPLRPRKRWDNGRDVVLIGDAAGVVAPASGEGIYYAMASGKMAAEALGEALAGAGPAALAQVRRRFLKAHGKTFWSLGLLQRFWYRSDRWRESFVAICADRDVQRLVWQSYLTKDLARGNMGAYMRIFFKDVAHLIGIAKSLEHHHHHH | not soluble |
| MRHISIFGTSSDAGKSTLTFVIAKILQRAGIRVAPFKAQNVSNNARVCDDGSEIAIAQSFQAEVLAIPTSYHLNPILLKSGINGQASVIVEGQVISQQDVLEYYRDLDTLKPAVQRCFETLAKMYDCIVAEGAGSPVELNLMDKDLSNIFIAKHYQTKIILVADIEKGGVFASVWGTYNLLPADLRSNVIGVIINKFRGDLSLFDEGIRIIEQAFKIPVLGVLPYMPFNLGFEDNASLQNFVQQPRQKKLKIGVIAYPYMSNYNDFEPLIADDEVLLEFINSPISLEHFDGVILPGSKLVIEDLHWLKTNGLFEQLQQRRKPIFAICGGYEMLFEQLHDPERIENLEPTTATGLGLIDDEIYFAKNKILNKAEYPIFGLNIAGFEMHHGISQKYPLYFQKDNIQGTFIHQVFDHNAFRTQYLRAICAQYQGFDFQLYKTEQINNFIEACRKRLNVKLILEAIQDQ | not soluble |
| MKKTQSEPDQEAIRKIEELSQDLIEGLESYGARLLSVYAHGGILFSEQSEFLHQLVGGRRERIPLTFGTIASTIYSDRVIFGKETIEIRHESNERFAGMFGWKEYPSKTRPGMTDGLLTAPFEFILTQSFVFKSKAAASVIMGRKQNQMINAADRASSQIEALDEALDDLESNRFVLGEHHLSLAVFANHPKALAEYLSKARAHLTNGGAVIAREDLGLEAAWWAQLPGNFSYRARSGAITSRNFAALSPFHSFPIGKLEGNVWGTAVALLKTQAGSPYYFNFHYGDLGNTFVCGPSGSGKTVIVNFLLAQLQKHNPTMVFFDKDQGAEIFVRAGGGKYKPLKNGQPTGIAPLKGMEYTEKNKVFLRNWVLKLVTAEGQTVTEEERQDIAKAIDALGNLPHAQRSLSALQLFFDNTSKEGIAIRLQRWLKGNDLGWVFDNDQDDLNLDSQFIGYDMTDFLDNEEIRRPLMMYLFNRILDLIDGRRIIIVIDEFWKALEDDSFKAFAQDRLKTIRKQNGMMLFATQSPKDALNSTIAHTIIEQCPTQIFFPNQKANYKDYVEDFKLTEREFELIQSELSRESRRFLIKQGQSSVVAELNLRGMNDEIAVLSGTTKNIELVNQIISEYGADPDIWLPIFHQRRENQLEHHHHHH | soluble |
| MGSDKIHHHHHHMTQTPVTLDQKVGEKRDRMRGVFSTQEIRKVGTGTTTRKTIQKSFWYVDEGDDGVIEVQPLNSNYVPSGPKRKIDRDELLDKFAPEPEFYVQTVFPKMRELNKTIARADRHRQKGETFSAEFEYNNALKVDEENVRANFGIGLTYLERGETDKADNIFERLVKLDAAFEEEHKHLFNEFGINLRKSKMYDQAVEYYGRALELSQGDENLHLNVARAYLEKQDFPHCLEHVLRALMINPAHEAGLKFLAWMEAKKLVPEDQRAAVAEAVARARSTGGTPASAANEG | not soluble |
| AHHHHHHGSKLKFWREVAIDIISDFETTIMPFFGNPDGGKLVKISPSGDETKLVDKLAEDLILSRITELGVNVVSEEVGVIDNESEYTVIVDPLDGSYNFIAGIPFFALSLAVFKKDKPIYAIIYEPMTERFFEGIPGEGAFLNGKRIKVRKTPDEKPSISFYSRGKGHEIVKHVKRTRTLGAIALELAYLAMGALDGVVDVRKYVRPTDIAAGTIIAKEAGALIKDSAGKDIDISFNATDRLDVIAVNSEELLKTILSLLE | soluble |
| SFAKTGQLFNQTHLEEKKEIAQKAIQFIQEGDSIILDSGSTTTEIAKLLMNYKDLTVITNALNIALILGENHGINLIVTGGEFKAPTLSLTGKMAADSFKDIRANKLFLATAGISSDMKLTYPSLSDLVVKSAMIESASKVYLVADCSKI | not soluble |
| MGSDKIHHHHHHMENSKVSLKIDVLVAEIGSTTTVVNAFHDINTNNPIFLGQGQAPTTVFEGGDVRNGLSGAIKDLANKLSVDDIEYNDMFATSSAAGGLKMTVHGLVYDMTVKAAKEAALGAGAVIRQITSGRIKRTDLNKIKEINPNIILIAGGVDYGERDTAIYNAEMIASMNLGIPVIYAGNVENQEEIRLIFEDTNYKLYITENVYPKIDLLNIEPTRRIIQSVFEEHITTAPGMKYIKEMVNENITPTPGAVMEASKLLYKNIGDLLTLDVGGATTDVHSVTDGSDYINKILVNPEPTAKRSVEGDLGVYVNMKNIVEVIGKENLQSELSIDIDAVIENYPPIPKSKEEILFVERLTKEAVVKAMLRHSGKIRNIYGTTGKVKIAEGKDLTEVRYIVGTGGALTRLPSRIEILDNMLKYNKNNELLFPKEKTKILIDNDYIMASMGVLSKKYEEASLKLLLKSLNFEEERLCILG | not soluble |
| APFTLLYDLLHPYGFNRDQIREVATSLDNPPGASFFSSSHRLLRERDRLTVLPLSPKMEVPELFGLKIGDSFLDLPDGKQLSWQRGTPADLDLEGLRLPNTKLLLPLAFVESLQEELGVRRPQRGDHIHPYGMKGCKTVSRFFIDRHVPRSRREEAWLLCQGTEVVWIMGYAADRRFAIDELSDTEEYLLFSFGL | not soluble |
| METEAIDGYITCDNELSPEREHSNMAIDLTSSTPNGQHASPSHMTSTNSVKLEMQSDEECDRKPLSREDEIRGHDEGSSLEEPLIESSEVADNRKVQELQGEGGIRLPNGERPFHCNQCGASFTQKGNLLRHIKLHSGEKPFKCPFCSYACRRRDALTGHLRTHSVGKPHKCNYCGRSYKQRSSLEEHKERCHNYLQNVSMEAAGQVMSHHVPPMEDCKEQEPIMDNNISLVPFERPAVIEKLTGNMGKRKSSTPQKFVGEKLMRFSYPDIHFDMNLTYEKEAELMQSHMMDQAINNAITYLGAEALHPLMQHPPSTIAEVAPVISSAYSQVYHPNRIERPISRETADSHENNMDGPISLIRPKSRPQEREASPSNSCLDSTDSESSHDDHQSYQGHPALNPKRKQSPAYMKEDVKALDTTKAPKGSLKDIYKVFNGEGEQIRAFKCEHCRVLFLDHVMYTIHMGCHGYRDPLECNICGYRSQDRYEFSSHIVRGEHTFH | soluble |
| MSLNVRIYCRASTEGQHADRALTSLREFSKSKGWQIAGEYIENASGAKLERVELMRLLSEAQSGDLLLVEAIDRLSRLEHSAWVELKDTLNRKGLIIVSMDLPTSWQMVEMAGNDLTSGILRAVNAMLIDILATMARQDYETRRKRQQQGIERAKSEGIYIGRAKNQEAREIVREMLEQGVKPELIMKAAGISRATYYRIKNELLIVKSEGHHHHHH | soluble |
| MKKSHYSVIIVGGGQAGLAISYLLKQESIDHVIFEKNQIGHAWRNQRWDSFCLVTPNWQCRLPGFPYAGGDDQGFMLKDEIVQYLEDYAASFQAPILEGVEVSKLSQRTDAFEVITSQGIYTADQVVVATGGYHTPKIAAIAKKLPPHIVQLHSVDYKNPETLPDRILLVGTGQSGCQIAEDLHLAGKTVHLATGSAPRSPRRYRGRDVVEWLELMGHYDLPIDEHPQKEMVRHKTNHYLTGRDGGREIDLRQFALEGMHLYGRLKDIDGNQILFADNLKENLDQADATAARIKQSIDEYIAKNQLDAPIEAPYQPVWEPTSIPLTLNIDEIDAVIWSTGFNFNYAWVDVPVFNSMGEPLHNRGVTNVAGLYFLGLPWLYTWGSGRFSGVARDAEYLAEKIRETLPANQINPCTVALEHHHHHH | not soluble |
| MKLKRYEVLADEITASIQAGTRRAGDRLPSVRQTSASRGLSATTVFKAYYLLEARGLIRARDRSGYYVVGKPKALPPELEAGAPAESRRVDVDVSDRVLHVLQLTMRRDVVPFGSAFPHPSLFPHARLARAMASSVAALDPWSSVDDLSAGNTRLRRAIALRYLADGVQVRTEDIVITNGALEALNLCLGAVTRPGDSVLIESPTFYSALQSLERLGLRAIEVPAHPREGIELDALARAIDTHRPAACWLMTNFQNPLGSLMPEDKKRALVELLAARDVPLIEDDVYSELYFGAQRPLPAKAYDESGIVMSCSSFSKSLAPGWRIGWVLGGRYADRILRGKLALSLSTSAPSQAALATYLEHGGYDRHLRQLRQTLEQQRNQVMEAIARHFPPGTRTTHPDGGYFLWVALPPQVDALAVHRAALSLGVSTAPGPIFSVQDRFRHCLRLNYGHPFDARAQDGLATLGKLIARQC | not soluble |
| MDKRYLESDVFEAFQERLSYLFNEFDYIYVSFSGGKDSGLLLNLVLDYKRKNNISSKIGVFHQDFEAQYSLTTEYVEKVFEDNIEDIEPYWVCLPMATRTAVGNYEMYWYPWDDEKEELWVREMPVKEYIINQKNNPFTYYKYKMRQESLAKQFGRWIRDIHEGAKVVCLLGTRAAESLQRYCSIVNKQHGYKGKCWITKEFKNVWTASPIYDWEIEDIWLAHYKFDYDYNKIYDLFYK | not soluble |
| MSVINCEEVKRDEFHTEKYYESYNIFGAHIVTEDEMRGVRFTVWAPHAKAMSVVGDFNEWDYEQHKMLQVTEEGIWSLFIPHIEEREIYKYAIETMAGDVIFKADPYAVYAEVRPNTASVVFDIKGYEWNDKNWSRKKKKKSVYKEAMTVYELHFGSWKKKEDGTLYSYREMAEELIPYVVEHQFTHIEIMPLVEHPYDRSWGYQGTGYYAATSRFGTPHDLMHFVDECHKYGIGVILDWVPGHFCKDAHGLYLFDGTPTYEYKDKDVQENPVWGTVNFDLGKREVRNFLISNALFWMRYFHIDGFRVDAVANMLYWNKEGQEQSNEHAVSFLRELNEAVFAEDEDFLMTAEDSTAWPLVTAPTYEGGLGFNYKWNMGWMNDVLKYMECAPEYRKYIHDKMTFSLLYAYSENFILPLSHDEVVHGKKSLLNKMPGDYWDKFAQLRLLYGYFFTHPGKKLLFMGGEFGQFDEWKDLEDLDWNLHDFEMHRYMHDYFKELIALYKRSKPLWQLDHSREGFQWIDANNNEQSIFSFIRQGDKQEDALVVVCNFTKATYENYKVGVPDFEYYNEVLNSDAEQYGGSGQVNKKRLKTFQEPYHNQTAHVEITIPPFGVSILRPVKTRKGSKKQDGSKTKVRSNVTSRGKR | not soluble |

From the DeepSol protein solubility set
